Test results: publication PMC10869282

Legend:
[1] = biological target: cis-epoxysuccinate hydrolase producing L(+)-tartaric acid from Rhodococcus opacus (RhCESH[L]) (Rhodococcus opacus); test: SEC; gel filtration of the purified enzyme against a molecular standard mixture (ovalbumin, chymotrypsin, ribonuclease A, aprotinin); aggregation state of RhCESH[L] unchanged in the presence or absence of DTT
[2] = biological target: cis-epoxysuccinate hydrolase producing L(+)-tartaric acid from Klebsiella sp. BK-58 (KlCESH[L]) (Klebsiella sp. BK-58); test: as above

Substance	stoichiometry N [1]	stoichiometry N [2]
cis-epoxysuccinate hydrolase producing L(+)-tartaric acid from Rhodococcus opacus (RhCESH[L]) (enzyme)	2	
cis-epoxysuccinate hydrolase producing L(+)-tartaric acid from Klebsiella sp. BK-58 (KlCESH[L]) (enzyme)		2
